# Reference: patent US20070178524A1, “Methods for determining and lowering caffeine concentration in fluids” (Washington University, priority 2004, published 2007)
# B1: VSA2: caffeine-specific llama single-domain heavy-chain (VHH) antibody fragment; SEQ ID NO: 1 with T7 and E tags, SEQ ID NO: 4 core (protein)
# VHH: GSHMASMTGGQQMGRGSEFAEVQLQASGGGLVQAGGSLRLSCTASGRTGTIYSMAWFRQAPGKEREFLATVGWSSGITYYMDSVKGRFTISRDNAKNSAYLQMNSLKPEDTAVYYCTATRAYSVGYDYWGQGTQVTVSHAAAGAPVPYPDPLEPR
# modifications: T7 and E tags; Camelidae antibody
# Experiments:
# [1] = Competition Caffeine-ELISA, cross-reactivity with theobromine; assay type: binding; conditions: theobromine at concentrations up to 250 μg/mL
# Description: (§1) Binding of VHH proteins to unconjugated caffeine was also assessed by a competition assay (Competition Caffeine-ELISA) in which 0-800 μg/mL caffeine (Sigma-Aldrich) was added as a competitor along with the VHH during the Primary Antibody Step of the Standard Caffeine-ELISA. All other steps are the same as for the Standard Caffeine ELISA. A405 readings with and without competitor were compared. The competition ELISA was used to assess cross-reactivity of theophylline and theobromine (Example 9, FIG. 4) and also the amount of caffeine in various beverages (Example 9, FIG. 7, Table 3).
# (§2) Two additional methylxanthines with similar structure to caffeine, theobromine and theophylline, were tested for cross-reactivity with VSA2. The Competition Caffeine-ELISA described above was run using theobromine and theophylline (Sigma-Aldrich) as competitors at concentrations up to 250 μg/mL and compared to competition by caffeine.
# (§3) The results of the competition caffeine-ELISA run with increasing concentrations of caffeine (-▪-), theophylline (. .●. .) or theobromine (- -▴- -) is shown in FIG. 4. The response (B) was compared to that of no competitor (Bo).
# [2] = Competition Caffeine-ELISA, cross-reactivity with theophylline; assay type: binding
# Description: as §1, §2, §3
# [3] = Competition Caffeine-ELISA, competition by caffeine; assay type: binding; conditions: competitors caffeine, theophylline, theobromine; FIG. 4
# Description: After caffeine specific clones had been identified, soluble VHH proteins not linked to phage particles were expressed (Harrison, supra). Binding activity of the VHH proteins was assessed in a Standard Caffeine-ELISA. Microtiter plates were coated with caffeine and blocked as above (Coating and Blocking Steps). The VHH proteins serially diluted in 20 mM Tris. pH 7.2 containing 150 mM NaCl and 0.1% Tween (TBS/BSA/Tween) were added and incubated for 90 min at 37° C. (Primary Antibody Step). Bound VHH fragments were detected by the addition of a 1/1000 dilution in TBS/BSA/Tween of mouse-anti-E Tag antibody (Amersham Bioscience Corporation) for 90 min at 37° C. (Secondary Antibody Step), followed by the addition of a 1/1000 dilution in TBS/BSA/Tween of goat-anti-mouse IgG-alkaline phosphatase conjugate for 90 min at 37° C. (Reporter Antibody Step), before the addition of para-nitrophenyl phosphate substrate (p-npp) (Sigma Aldrich) (Substrate Step). The wells were washed and monitored at A405 as above. […]
# Binding of VHH proteins to unconjugated caffeine was also assessed by a competition assay (Competition Caffeine-ELISA) in which 0-800 μg/mL caffeine (Sigma-Aldrich) was added as a competitor along with the VHH during the Primary Antibody Step of the Standard Caffeine-ELISA. […] A405 readings with and without competitor were compared. […]
# [4] = Thermal reactivity at 70° C. with caffeine-biotinylated nonapeptide and streptavidin magnetic beads; assay type: binding
# Description: (§4) After caffeine specific clones had been identified, soluble VHH proteins not linked to phage particles were expressed (Harrison, supra). Binding activity of the VHH proteins was assessed in a Standard Caffeine-ELISA. Microtiter plates were coated with caffeine and blocked as above (Coating and Blocking Steps). The VHH proteins serially diluted in 20 mM Tris. pH 7.2 containing 150 mM NaCl and 0.1% Tween (TBS/BSA/Tween) were added and incubated for 90 min at 37° C. (Primary Antibody Step). Bound VHH fragments were detected by the addition of a 1/1000 dilution in TBS/BSA/Tween of mouse-anti-E Tag antibody (Amersham Bioscience Corporation) for 90 min at 37° C. (Secondary Antibody Step), followed by the addition of a 1/1000 dilution in TBS/BSA/Tween of goat-anti-mouse IgG-alkaline phosphatase conjugate for 90 min at 37° C. (Reporter Antibody Step), before the addition of para-nitrophenyl phosphate substrate (p-npp) (Sigma Aldrich) (Substrate Step). The wells were washed and monitored at A405 as above. The Standard ELISA assay was used to assess thermal stability and reactivity of VSA2 (Example 9, FIGS. 5 and 6).
# The thermal reactivity of VSA2 was also determined. […] The amount of unbound VSA2 remaining in the supernatant was determined in a Standard Caffeine-ELISA.
# [5] = Removal of caffeine from solution by VSA2 NiNTA agarose column
# Description: (§5) The ability of VSA2 to remove caffeine from solution was assessed. VSA2 still containing the His Tag (prior to thrombin cleavage) was coupled to a NiNTA agarose column via its N-terminus His Tag. Approximately 1 mg of antibody was bound to 1 ml of swollen agarose. One mg of a different unrelated protein which also contained a Histag was bound to a NiNTA agarose column as a control. Five μg of caffeine in 0.5 ml of PBS was passed over the column and then washed with 4 ml of PBS and 0.5 ml fractions collected. The amount of caffeine in the wash solutions was determined by absorbance at 273 nm and converted to amount of caffeine via comparison with the absorbance of standards (0, 2.5, 5, 10 ug).
# The caffeine bound to the column was eluted with 8 M urea, 100 mM sodium phosphate, 10 mM tris, pH 6.3 and 4.1 ug of caffeine came off the column which was in excellent agreement with the 4.2 ug which had originally bound to the column. No caffeine was eluted from the control column.
# The ability of the VSA2 column to remove caffeine from solution was confirmed using HPLC (method previously described) to analyze the original caffeine solution put on the column and the fractions from the column washes. […] The HPLC procedure could not be used to measure the caffeine eluted from the column due to the presence of 8 M urea.
# [6] = Removal of caffeine from decaffeinated coffee by VSA2 column; conditions: HPLC
# Description: as §5
# The ability of VSA2 to remove caffeine from “decaffeinated” coffee was also assessed using brewed decaffeinated coffee (Seattle's Best™). By HPLC analysis, this batch of decaffeinated coffee had 30.8 μg/mL of caffeine. One hundred and sixty seven μL (5.15 μg caffeine) of the decaffeinated coffee was placed on the column and then the column washed as previously described and caffeine measured by HPLC in the 0.5 ml aliquots. 3.9 μg of caffeine was removed from the first decaffeinated coffee aliquot placed on the column and 0.5 μg from the second 167 μl aliquot. The total of 4.4 μg of caffeine removed by the column was very similar to the 4.2 μg removed by the column when caffeine was in a simple solution.
# [7] = Thermal stability: Standard Caffeine-ELISA after heat pre-incubation; assay type: binding
# Description: as §4
# The thermal stability of VSA2 was determined and compared to that of two mouse anti-caffeine monoclonal antibodies (Catalog No. G45110 M and G45111 M, U.S. Biological, Swampscott, Mass.). Antibody solutions were prepared in TBS containing 0.1% Tween and incubated for 20 min at temperatures ranging from RT to 90° C. The solutions were re-equilibrated to RT before measuring caffeine binding activity. For VSA2, the Standard Caffeine-ELISA protocol was followed. For the commercial mouse monoclonal antibodies, the Secondary Antibody Step was skipped.
molecule,measurement,setting,value
B1,competition by theobromine,[1],essentially no competition
same,amount of theophylline relative to caffeine needed for equivalent competition,[2],approximately fourteen times as much theophylline as caffeine
same,cross-reactivity with theophylline,[2],7.4%
same,competition by theophylline,[2]; theophylline at 250 μg/mL,some competition
same,specificity for caffeine in competition caffeine-ELISA (B/Bo),[3],highly specific for caffeine
same,VHH remaining in solution,[4]; 20 μg/mL caffeine-biotinylated-nonapeptide,56.8%
same,VHH remaining in solution,[4]; 200 μg/mL caffeine-biotinylated-nonapeptide,20.1%
same,caffeine bound to the column,[5]; HPLC analysis,3.8 µg
same,caffeine eluted from the column,"[5]; eluted with 8 M urea, 100 mM sodium phosphate, 10 mM tris, pH 6.3",4.1 µg
same,caffeine bound to the column,"[5]; first 5 μg caffeine aliquot, UV method",3.6 µg
same,caffeine recovered in the washing solutions,"[5]; five μg caffeine in PBS added, about 1 mg His-tagged VSA2 on 1 ml agarose, absorbance at 273 nm, average of duplicate",1.4 µg
same,additional bound caffeine,"[5]; second 5 ug caffeine aliquot, UV method",0.6 µg
same,total caffeine originally bound to the column,"[5]; two 5 ug aliquots, UV method",4.2 µg
same,caffeine removed,[6]; first 167 μL decaffeinated coffee aliquot (5.15 μg caffeine),3.9 µg
same,caffeine removed,[6]; second 167 μl decaffeinated coffee aliquot,0.5 µg
same,total caffeine removed by the column,[6]; two decaffeinated coffee aliquots,4.4 µg
same,effect of heat pre-incubation on caffeine binding,"[7]; 20 min at temperatures of 60° C. and below, re-equilibrated to RT",no effect
same,activity retained after heat pretreatment,"[7]; 20 min at temperatures up to 90° C., re-equilibrated to RT",greater than 90%
same,heat stability compared among four representative clones,"[7]; purified soluble antibodies, 2 llama and 2 camel clones",greatest degree of heat stability
